What was measured:
[1] = biological target: CD9(ECD)-ALP conjugate (human; bovine); assay: HI-1000 capture immunoassay; secondary calibrator C1, 1.02 U/L; mean of 3
[2] = biological target: CD9(FL)-ALP conjugate (human; bovine); assay: HI-1000 capture immunoassay; calibrator C5, 43.86 mU/L; run 3
[3] = biological target: CD9(ECD)-ALP conjugate (human; bovine); assay: HI-1000 capture immunoassay; primary calibrator C2, 4.89 ng/mL; run 2
[4] = biological target: CD9(ECD)-ALP conjugate (human; bovine); assay: HI-1000 capture immunoassay; primary calibrator C3, 15.65 ng/mL; run 2
[5] = biological target: CD9(FL)-ALP conjugate (human; bovine); assay: HI-1000 capture immunoassay; calibrator C1, 1.0 ng/mL; mean of 3
[6] = biological target: CD9(FL)-ALP conjugate (human; bovine); assay: HI-1000 capture immunoassay; calibrator C3, 7.4 ng/mL; run 2
[7] = biological target: CD9(ECD)-ALP conjugate (human; bovine); assay: HI-1000 capture immunoassay; thawed aliquot 3 of secondary calibrator C5
[8] = biological target: CD9(ECD)-ALP conjugate (human; bovine); assay: HI-1000 capture immunoassay; secondary calibrator C3, 14.32 U/L; run 3
[9] = biological target: CD9(FL)-ALP conjugate (human; bovine); assay: HI-1000 capture immunoassay; calibrator C3, 10.96 mU/L; mean of 3
[10] = biological target: CD9(FL)-ALP conjugate (human; bovine); assay: HI-1000 capture immunoassay; calibrator C3, 10.96 mU/L; run 2
[11] = biological target: CD9(FL)-ALP conjugate (human; bovine); assay: HI-1000 capture immunoassay; calibrator C1, 1.0 ng/mL; run 2
[12] = biological target: CD9(ECD)-ALP conjugate (human; bovine); assay: HI-1000 capture immunoassay; thawed aliquot 3 of secondary calibrator C1
[13] = biological target: CD9(FL)-ALP conjugate (human; bovine); assay: HI-1000 capture immunoassay; calibrator C2, 5.48 mU/L; mean of 3
[14] = biological target: CD9(ECD)-ALP conjugate (human; bovine); assay: HI-1000 capture immunoassay; thawed aliquot 2 of secondary calibrator C4
[15] = biological target: CD9(ECD)-ALP conjugate (human; bovine); assay: HI-1000 capture immunoassay; secondary calibrator C5; mean of 3 aliquots
[16] = biological target: CD9(ECD)-ALP conjugate (human; bovine); assay: HI-1000 capture immunoassay; primary calibrator C5, 159.87 ng/mL; run 3
[17] = biological target: CD9(ECD)-ALP conjugate (human; bovine); assay: HI-1000 capture immunoassay; primary calibrator C5, 159.87 ng/mL; run 1
[18] = biological target: CD9(ECD)-ALP conjugate (human; bovine); assay: HI-1000 capture immunoassay; thawed aliquot 3 of secondary calibrator C3
[19] = biological target: CD9(ECD)-ALP conjugate (human; bovine); assay: HI-1000 capture immunoassay; primary calibrator C2, 4.89 ng/mL; run 3
[20] = biological target: CD9(ECD)-ALP conjugate (human; bovine); assay: HI-1000 capture immunoassay; secondary calibrator C2, 3.84 U/L; mean of 3

Sequence of CD9(ECD)-ALP conjugate (human; bovine) (chain, as listed by the source, chain 1 of 2): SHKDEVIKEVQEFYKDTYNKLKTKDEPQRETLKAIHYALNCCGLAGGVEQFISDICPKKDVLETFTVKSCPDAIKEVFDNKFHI
Sequence of CD9(ECD)-ALP conjugate (human; bovine) (P19111 20-506, chain 2 of 2): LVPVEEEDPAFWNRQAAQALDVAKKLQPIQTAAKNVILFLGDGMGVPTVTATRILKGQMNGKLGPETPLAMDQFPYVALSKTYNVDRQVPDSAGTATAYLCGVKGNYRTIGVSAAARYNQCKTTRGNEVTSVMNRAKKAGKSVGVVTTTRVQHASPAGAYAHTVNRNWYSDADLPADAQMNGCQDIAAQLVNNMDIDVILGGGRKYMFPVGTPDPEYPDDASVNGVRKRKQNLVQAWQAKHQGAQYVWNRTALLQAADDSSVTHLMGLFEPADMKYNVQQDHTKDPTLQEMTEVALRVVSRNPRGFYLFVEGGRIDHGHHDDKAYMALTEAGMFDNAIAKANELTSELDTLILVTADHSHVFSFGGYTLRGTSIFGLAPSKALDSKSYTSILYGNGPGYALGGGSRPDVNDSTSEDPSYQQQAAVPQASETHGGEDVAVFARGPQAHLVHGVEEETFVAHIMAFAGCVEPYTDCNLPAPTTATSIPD
Sequence of CD9(FL)-ALP conjugate (human; bovine) (chain, as listed by the source, chain 1 of 2): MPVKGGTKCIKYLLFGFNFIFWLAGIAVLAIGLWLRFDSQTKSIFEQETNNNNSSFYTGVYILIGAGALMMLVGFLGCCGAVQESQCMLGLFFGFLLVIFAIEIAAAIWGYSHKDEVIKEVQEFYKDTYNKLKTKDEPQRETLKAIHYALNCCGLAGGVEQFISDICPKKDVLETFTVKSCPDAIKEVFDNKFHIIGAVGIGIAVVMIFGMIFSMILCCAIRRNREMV
Sequence of CD9(FL)-ALP conjugate (human; bovine) (P19111 20-506, chain 2 of 2): as the sequence (P19111 20-506, chain 2 of 2) above

anti-CD9 antibody (Clone: H19a) showed a Count value (av) [1] of 941 count, a Count value [2] of 27800 count and a Count value [3] of 2520 count. For the same substance, the Count value [4] was 7230 count, the Count value (av) [5] was 1480 count and the Count value [6] was 7020 count. The Count value [7] was 35700 count, the Count value [8] was 8060 count and the Count value (av) [9] was 6750 count. For the same substance, the Count value [10] was 7090 count, the Count value [11] was 1550 count and the Count value [12] was 805 count. It also gave a Count value (av) [13] of 3640 count, a Count value [14] of 12000 count and a Count value (av) [15] of 36300 count. For the same substance, the Count value [16] was 71600 count, the Count value [17] was 70400 count and the Count value [18] was 3800 count. The Count value [19] was 2540 count and the Count value (av) [20] was 2390 count.

Source: patent publication US20240118272A1
